Assay results published in the DeepSol protein solubility set.

Test: soluble on expression in E. coli; label from the status in PepcDB or PDB records

Sequence | soluble on expression in E. coli
MEPVLFYGVPHGCSFGSIVALEWLGRPYRLCRIEMPLDTGERTYVRLNPARQTPTLLLEDGRALSESLAILQHLAARDLCRKLGYPQGSAEFDELNFALALLHTECHSAWGALFYLEDADATTTARALTRAARAYGRIDKLLGDRKWLAGEGPSVADAYLAGTARWGRELGYFDLQHDFPRLHRHLEKLEQDPAVRFAHAIEDRLPAQSCGEFRGEVTLAEVASRLLA | not soluble
MIRPKPIAFEQPQTMPSILYPIHPPFRREELVTPTRENQIFKELLISISIYNSGEERLERITRPPLMASIPNGRFYNCRVRSSGSKTKAIFQQFKISVCSRE | not soluble
MCGRFTLTLPPDLLAEIIGEIEAARVQPRYNIAPAQEVAVVRQDAGGRRHLDYLRWGLIPPWAKDASVGNHMINARSETVAEKPAFRHAFRSRRCLVLASGFYEWKAEGNRKQPLYIHMKDGGPMVFAGLWESWKSPEGAIVESCTILTTYSNSLIRPLHDRMPVILGRSDWDIWLSREATSEELTPLFQPYPSDLLAMYPVGTGVNSPRNDSPDLLEPLNEPLEHHHHHH | not soluble
MSLDSGRNGGGPSVFRRDLLRSIGAAGLAGLAGCGGSEGVTDGDGTPAPTPVGNFPVSGDSVTFGFNVASSGAYSTAGKQEIRGFKLAVKHINNGGGWVTSEKYNSPLDGDGLLGKDVEFVVEDTGGSSDTARSNAQRLVDGEEVIMLAGGTSSSAGLANQEVAAQNQVIYMATMANTNSLTGADCNRYSFREMFNNHMAAEALAPALSDEFGKNANYVKIFQDNDWGQTLRDDMDAALGNVGWAPVWDTTAQVGTSDYSQYAADIKSVDFDVIVLGLGGLDAVNALRAFRDEFPESNIVLPMASREIAETAGGAIEGVIGTVAWSRAINSPLSNTFRETFREEYGSSTGSSKSAAPSGAAHIAYTQALQYASAVERAGTFNPIDVIGALEGHEYDAGLGPQTLRACDHQAMRQVPVVRGKSEIQQSYGTYYDLIGEPADVQYACDSGPAANCSLGGSEGHHHHHH | not soluble
SNAMSLEMFDKEIFDLTNKELERQCEGLEMIASENFTLPEVMEVMGSILTNKYAEGYPGKRYYGGCEFVDEIETLAIERCKKLFNCKFANVQPNSGSQANQGVYAALINPGDKILGMDLSHGGHLTHGAKVSSSGKMYESCFYGVELDGRIDYEKVREIAKKEKPKLIVCGASAYARVIDFAKFREIADEIGAYLFADIAHIAGLVVAGEHPSPFPYAHVVSSTTHKTLRGPRGGIIMTNDEELAKKINSAIFPGIQGGPLMHVIAAKAVGFKFNLSDEWKVYAKQVRTNAQVLANVLMDRKFKLVSDGTDNHLVLMSFLDREFSGKDADLALGNAGITANKNTVPGEIRSPFITSGLRLGTPALTARGFKEKEMEIVSNYIADILDDVNNEKLQENIKQELKKLASNFIIYERAMF | soluble
MYRNLLNWLTILLVFPSCSGTSPTISVVCEENNVGNAIIKWETAPILKGQVKVYASTSPDFIPEENPVVTINIAKGKKTIVTNDPSQRYYYLMVFNNRYRVRVAARNVNIPGIQNFRDLGGYKSAETGKDTRWGMLYRSAQIDSIPFCSRRELKNMGIRTIIDLRSEEERHNYPQLHDEDFNVLHLPIATGNMEHILQDIRDKKIETDTIYRLVERMNRQLVTNYRKEYKELFTLLLDRNNYPVVIHCTSGKGRTGIVSALVLAALGVNEEAIMKDYRLSNDYFNIPKASRYAYKLPINSQEAITTIYSAKEDFLNAAKEQIDAEYGSVQAYLKKGIGLSAEEIERLRSILLIDNGLEHHHHHH | not soluble
MARMKARSAKGKRVAKDTWKSKVWYDIYTPQSFGGDVIGQTPANDPANLIGRISEISLRDLTNEHSKHMTRMYFKVDGVSGNNATSQFVGHDTTREYLKSQVRRRRSKINAIVEVRTKDGFKVRVKALVLTAVRARDHHKTEIRVRMEQIIKEMAKETPFAEFVHAMLMGGLGSKIYGDCKKMFPLKRVEIFKSEVIEFGKAAEAPVEEAAAEEVVEEAAAETQELEHHHHHH | soluble
MEERDSETGWRGSREGWLQAAYEALIEGGVESVKIMTLAARLKLSRTSFYWFFKDRADVLDALRSQWAGTTTAPLVAASAEYAESRAEAMLNVLACFLSGRFDARFEFAARSWGLQDPAMAAAVEAADAERLAALTDMLARWGHDPQEADVRARTVYLVQIGYISMRAEETLETRLARIPNYVEIYTGVRPEPREMARFRARLGLAV | not soluble
GSLDALGSQPIHLWQFLKELLLKPHSYGRFIRWLNKEKGIFKIEDSAQVARLWGIRKNRPAMNYDKLSRSIRQYYKKGIIRKPDISQRLVYQFVHPI | soluble
MSLTRAQLEDMPQYQQVYSSINTWPSKKWYVGKGVHLSELLSLVGIKDDARLLKFTSQDGYTMTLTVKELLVDKRYYFPHFNDNKIGDGEGNIAGSSQGAELVEPIIALISVEGSNNPNYMNDLNTLVLMMGQRAVTEQTGNAFVKYLNKIEVLTSEVPKWDSPQANPGSGEVSAGTMIALSTARMDDDKIYYTTDGSTPNLNSPIYNWIAKRWWSARADILGTYNHPIGPINENTTIKAITIGPGKENSDVATFTYTVPVSKPASETSIVAPNEATNYPDQALEKPLQSEPKATLTDVQNHWAQKNINELIASGIAGGYPDSSFRPDNTITRAEFATMLVKAFNLQNQGGKVFADSEQHWAKEYISRATASGVVSGYDAENFGPDKLITREQMAVMISKAAKLVLKAEAMHFADSAGISEWAKEAVLAANQSGIVKGYPDNTIRPQGSATRAEAVTVIVNALTLKEGHHHHHH | not soluble
MAHHHHHHMDPGAVMPGIVQMSKDNFDQLVGKEKAVLVEFYAPWCGHCKSMAPEYAALGAAYEASTNAKDLLLVGKVDATQDSDLGKRFGVTGFPTILYFAPGSLEPEKYKGGRTAEDFAKYLSSAIAGLRLTIPIEPQFAMELVHTNFDAVVKDPSKAVLVMFYAPWCGHCKALKPIYNTLAKVFSNDKDVVIARINADDAANRKIATEYAVAGFPTVYFFPKGADEKPVEYKNGRNLEDFLTFVNENAGKHRLANGDFSWECGVIAELAEAVALVATSSGESSKAAVEAVKAAAAKLAESEDAAYYIKAAERIAAKGPAYVESESARLKRTLGGSVAGDRRDNMVRRLNILTSIQKHMK | not soluble
GEYKMILVVRNDLKMGKGKVAAQCSHAAVSAYKQIQRRNPEMLKQWEYCGQPKVVVKAPDEETLIALLAHAKMLGLTVSLIQDAGRTQIAPGSQTVLGIGPGPADLIDKVTGHLKLY | soluble
MSLQYQVVPVTAFAQNCSIVWCDETMEGIVVDPGGDVKQLAMLIAELGVKVTQLVLTHGHLDHVGGTQSLAQALGGTRVVGPHKADNFWLQGLEGQSKMFGFPLTEAFEPDEWLDDGDVIHFGQQTLQVIHTPGHTPGHVVLFSEAARLAFVGDVLFNGSIGRTDFPQGDFNTLIASIKNKLWPLGSDVTFIPGHGPQSTFGRERASNPFVADEMPLY | not soluble
AHPELKSSVPQADSAVAAPEKIQLNFSENLTVKFSGAKLTMTGMKGMSSHSPMPVAAKVAPGADPKSMVIIPREPLPAGTYRVDWRAVSSDTHPITGNYTFTVK | soluble
MSLVTLRSLAQQLKVHVSTVSRVLNGTDDDARNAAAPETVERIRELAQQLNYRPNPHAIGLRTQKTRTVSVLVPQLSDLVVATIYEGIDAAAADSRYLTFVANTGDAPPRQRQLGEMALDRRVEGLIFADARRDDTRFLDEIARRGVPMVLVSRHLGTHCAVTCDDVAGGRMAAEHLLALGHRDIAVLAGEQYASTGCDRSAGFIAYCREQGVDIPAKWILHGPFDTRAGRLAGEKLFRSARKPSAVFAVNDFLAIGLMGAVRDRGLRAGHDVAIVGFNDTPLAAELPISLTTIRSPMHAMGYRSMELLLERIKGGRPASERLAPQLMVRASTCPREGIITITTDPNSSSVDKLAAALEHHHHHH | soluble
MSKKPTSAYVHIPFCTQICYYCDFSKVFIKNQPVDAYLEALIKEFNDYYQIKDLQTLYIGGGTPTAISGEQLDYLLTNLSKNLNLNMLEEFTIEANPGDLTPDKVAVLKQSAVNRVSLGVQTFNNKHLKQIGRGHNEAQIYESIDSLKSAGFDNISIDLIYALPNQTITDVKENVAKALALDIPHLSLYNLILEHHTVFMNKMRRGKLNLPAEDLEAEMFDYIISEMEDHGFEHYEISNFTKPGFESRHNLMYWNNAEYFGCGAGASGYVDGIRYRNRGPIQHYLKAIKEKRQARFQEERLSQSEKMEEELFLGLRKKSGISIQRFEDKFGLPLMEVYGQAIDDLEKDGLILVEKDCIRMSKKGLFLGDTVAEKFILEQK | not soluble
MHPIETPDKTFHDGDGVSELGTILPAWWLNQVQSELLAVLTAAGIQPDKSQPNQLLAALNRLAVVITGDQTVNGQKTFTAQTQFQSGIHLSANQTNWNGGHKAYIGADADNAHIVFGDDTLRLHGANNRISYNNHDIFHKANKPRFAEDIQGKPNTLSGYGIGNFKVETFRGDLNTLKTDGIYSLPTAVGSSNLPVENTACHIQVIAGTKHGWCRQLGYPAYTSDVYERHQTSSANDNWSAWKKLNSDGIPVGAIVSFPKAVQNPAGYLKANGTTFAQNTFPDLYRALGNSNRLPDLSRTDIGITAWFPSDQIPTGWLAFDDIRTRVTETAYPELYRLLTGKYGSIQNVPQAEDRFIRNAGNSLAVGTKQEDEIKRHVHKVFSHWTNHTDAAALGYEDRNERQRSALVSTWTDENLNDNGFLTPRSDSKMATGGDENRPKALVLKLCIKAADTLGEAVFWIKSHGETINAGALDAGTLAQGLQDKADRDHTHTAAQIQGLDEKISTAVAAQFTRQTIGGVDIVRFPDGTMIQTGSYRFTRSGGPIENEVVFPVAFADGNVKCFVSERHSERVTGDRRQHNWLFIRAKNHAAAIITNWYEGSCDWMAIGKAASGNAASSPIGPEIPETNEEPQRESGRTSTGPRNRRRRDGLLEALQD | not soluble
MSAPTTFSVALHNETATAQLMADLALLVGPGDVITLTGDLGAGKTAAARAMIRYLADDEALEVPSPTFTLVQGYELPPFPVMHADLYRVEDESELEEIGLSPLPDATLVLIEWPERAPSALPEDRIDIALTHRPALGSNARAADITGYGKSAAQVARLKALREFLDASGYLDAMRRRMAGDASTRSYARLLRDDEIVILMNFPQRPDGAALYNGKSYSAAVHLAENVKPFVAIDEGLRAQGISAPAIHHADLDHGFLISEDFGSEGVIEGNPPRPIPERYEAATDVLAVLHGKTLPETLPLDGQSYAIPVFDTEAMLIEIGLMPEWYLPDRNAPLSEPKRAEFFAMWRELLKKPLAAPRTWIIRDYHSPNLIWLGMRTGIERVGVIDFQDTVLGPQSYDVVSLLQDARIDVPENLELTLLSRYIKARRAGDASFDPAGFAELYAIMSAQRNTRLLGTFARLNRRDGKPHYLRHQPRIWTYLQRSLAHPALSHLRDWYLANVPPPQRPSQEPAPEPPQGLEHHHHHH | soluble
MNDHTAAIAAHFDQLAPNLDRWRRRNRTYYRDLEKLHRFWIPTGSRVLQVGSGLGDLLATVEPSFGIGIDVSPQAVAIAQQRHPQLQFHCLAAEELTPEAIGNPEPFDAIILTGVLSYLTDIQVVLEQLQAFCHPRTRLILGFHNFLWQPLLTAAEKVGQRSPQPPESWLGMQDVLNLLTLTGYEPIKQGLEHHHHHH | soluble
MGSDKIHHHHHHMERNEMLKKVEAAMPNARFKHTLGVEKAAVELAEHYHMDVEKARITALLHDYAKYYDDDKARKIIEDEGYDPRLLSFHRSLWHAPVGAYLAEKEFGITDTEILEAIRLHTTGSATMSDFDKLIYLADYTEQGRTFPGVYKARRLALKSLNEAMLFALSNTITHLVKKQQLVFPDTLDAYNYFVNLNLEGDY | not soluble
